Consider 2 proteins from patent US20200261490.

Data set [1] has as its target STC2(C120A), human stanniocalcin 2 with cysteine 120 replaced by alanine, C-terminally myc-his-tagged.
Data set [2] concerns the target recombinant human stanniocalcin 1, C-terminally myc-his-tagged.
Data set [3] concerns the target recombinant human stanniocalcin 2, C-terminally myc-his-tagged.
Data set [4] deals with untagged human STC2 (transgene-derived STC2 of transgenic mice; endogenous STC2 of 293T cells).

B1: murine PAPP-A2 (protein)
chain: QNGGGASLRRVETFNSQGGLPVLYFTGKRERLLLRPEVLAEIPREAFTVEAWVRPEGGQSNPAIIAGVFDNCSHTVNDKGWALGIRSGKDKGWRDARFFFSLRTDRMKKATIVTGHSRYQPGMWTHVAATYDGQHTALYVDGTRVASSRDQFGPLNSPFMASCRSLILGGDSSEDGHYFRGYLGTLVIWSTALSQTHLQHSPLHPSAADELTTLILTATFDPLMEQWAPFRDDLYPRLEVLQDSESQPEILSPLQPPPCGQTACDNVELISQYNKHGPLRREKVIRYQVVNIYDDEGLHPIVSDHQIRRQHEALNQAFSRYNISWQLSVHRVHNSTLRHRVVLVNCEPSKIGNDHCDPECEHPLTGFDGGDCRLQGRCYSWNRRDGLCHVECNNMLNDFDDGDCCDPEVTDVRKTCFDPDSPKRAYMSVKELKEALQLNSTHFLNVYFASSVREDLAGSATWPWDKEALSHLGGVVLNPTYYGMLGHTNIMIHEVGHVLGLYHVFKGVSERESCDDPCRETVPSMETGDLCADTAPTPKSKLCRDPEPANDTCGFTLFPGAPFNNYMSYTDDECTDNFTPNQVARMHCYLDLVYQQWSESQKPTPIPIPPMVIGQTHKSLTIHWLPPISGVVYDRAPDSMCSACTEDGTFRQYVYKASSGRVCDSSGYWTPEEAVGPPDVDQPCEPSLQAWSPELHLNHMNMTVPCPAEGCSLELLFQYPVQADTLTLWVTYLSMNSSKAFFDIEILLEHKKSMHLGPLNTFCDIPLTIKLHMDEKVMGAKVYTFDERMEIDAALLTSRPNSSLCSGCKPMSYQVLREPPFSSGLPMVVTHPHRKFTDTEVIPGQMYQYQVQAEAVGELGEASPPLSHIHGGPYCGDGKVERSIGEMCDDGDLLNGDGCSRACELEEGFNCAGEPSLCYRYEGDGVCEDFEKESIITDCGLHTPEGYLDQWASQAYSYHEDKEKCPVSLVTGEPHSMICTSWHPDSSPYHSFPGWFPCVFSLKKDQDAGSEQAKDSLQKDNEIWLEVCFNRPGVAVAIYIFLASDGVTPGEHQQATVTLYLIDVSGSNHSLGTYGLSCQQNPLVINVSHHVNVYPQHTSSMLLNFSSPLVGISAVALRTSSQTSSSAPSNCIPEQNYEGKSCAQRPCGEQGRCAPLLLDHTDMVNCTSSSPGHMECAITCQRGYVLQTSSGQYLRNMQKEILLTCSSGHWDKDVICKRLDCGVPDSSLVNYANFSCLEGTDFLKQCSISCVPPAKLQGLNPWLTCLEDGLWSLPEVYCKLECEAPPVIPNANLLLPHFLEGNHDVGTICKYECKPGYYVKETSGSQGKNKFLKIQCLDDGSWEQGSCVPVVCEPPPPVFEGMYECTDGFKLDSQCVLNCNQETEGIPILCTKEGLWTQEFKLCENLQGECPPPTSELNSVEYKCGQGYGIGAVCSPSCVIPPSDPVILPENVTTDTLEHWMEPVKVQSIVCTGRRQWHPDPSLVHCIQSCEPFQADGWCDTINNRAYCNYDGGDCCSSTLSSKKVIPFAADCDLDECTCRDPKAEENQ
As to B1, the “proteolytic activity of murine PAPP-A2 towards radiolabeled IGFBP-5” value in data set [1] was “Murine PAPP-A and PAPP-A2 are inhibited by STC1 and STC2, but not STC2(C120A)”; in data set [2], “Murine PAPP-A and PAPP-A2 are inhibited by STC1 and STC2, but not STC2(C120A)”; in data set [3] it was “Murine PAPP-A and PAPP-A2 are inhibited by STC1 and STC2, but not STC2(C120A)”.

B2: murine PAPP-A (protein)
chain: RGAEEPSPPSRALYFSGRGEQLRLRADLELPRDAFTLQVWLRAEGGQKSPAVITGLYDKCSYTSRDRGWVMGIHTTSDQGNRDPRYFFSLKTDRARKVTTIDAHRSYLPGQWVHLAATYDGRLMKLYMNGAQVATSAEQVGGIFSPLTQKCKVLMLGGSALNHNFRGHIEHFSLWKVARTQREIVSDMETRGLHTPLPQLLLQENWDNVKRTWSPMKDGNSPQVEFSNAHGFLLDTNLEPPLCGQTLCDNTEVISSYNQLPSFRQPKVVRYRVVNIYDDHHENPTVSWQQIDFQHQQLAEAFQHYNISWELEVLNINSSSLRHRLILANCDISKIGDEKCDPECNHTLTGHDGGDCRQLRYPAFMKKQQNGVCDMDCNYERFNFDGGECCDPDITDVTKTCFDPDSPHRAYLDVNELKNILRLDGSTHLNIFFANSSEEELAGVATWPWDKEALMHLGGIVLNPSFYGIPGHTHTMIHEIGHSLGLYHIFRGISEIQSCSDPCMETEPSFETGDLCNDTNPAPKHKFCGDPGPGNDTCGFHGFFNTPYNNFMSYADDDCTDSFTPNQVSRMHCYLDLVYQSWQPSRKPAPVALAPQVVGHTMDSVMLEWFPPIDGHFFERELGSACDLCLEGRILVQYAFNASSPMPCGPSGHWSPREAEGHPDVEQPCKSSVRTWSPNSAVNPHTVPPACPEPQGCYLELEFRYPLVPESLTIWVTFVSSDWDSSGAVNDIKLLTISGKNISLGPQNVFCDIPLTIRLRDVGEEVYGIQIYTLDEHLEIDAAMLTSTVDSPLCLQCKPLQYKVLRDPPLLEDVASLLHLNRRFMDTDLKLGSVYQYRIITISGNEESEPSPAAIYTHGSGYCGDGVIQKDQGEECDDMNKVNGDGCSLFCKQEVSFNCIDEPSRCYFHDGDGMCEEFEQKTSIKDCGVYTPQGFLDQWASNASVSHQDQQCPGWVVIGQPAASQVCRTKVIDLSEGISQHAWYPCTITYPYYHLPQTTFWLQTYFSQPMVAAAVIIHLVTDGTYYGDQKQETISVQLLDTKDQSHDLGLHVLSCRNNPLIIPVVHDLSQPFYHSQAVHVSFSSPLVAISGVALRSFDNFDPVTLSSCQRGETYSPAEQSCVHFACQAADCPELAVGNASLNCSSNHHYHGAQCTVSCQTGYVLQIQRDDELIKSQVGPSITVTCTEGKWNKQVACEPVDCGIPDHHHVYAASFSCPEGTTFGRRCSFQCRHPAQLKGNNSFLTCMEDGLWSFPEALCELMCLAPPPVPNADLQTARCRENKHKVGSFCKYKCKPGYHVPGSSRKSKKRAFKTQCTQDGSWQEGTCVPVTCDPPPPKFHGLYQCTNGFQFNSECRIKCEDSDASQGRGSNIIHCRKDGTWSGSFHVCREMQGQCSAPNQLNSNLKLQCPDGYAIGSECAISCLDHNSESIILPVNLTVRDIPHWMNPTRVQRIVCTAGLQWYPHPALIHCVKGCEPFMGDNYCDAINNRAFCNYDGGDCCTSTVKTKKVTPFPMSCDLQNDCACRDPEAQEHNRKDLRGYSHG
Turning to B2, the “proteolytic activity of murine PAPP-A towards radiolabeled IGFBP-4” value in data set [1] was “Murine PAPP-A and PAPP-A2 are inhibited by STC1 and STC2, but not STC2(C120A)”; in data set [2] it was “Murine PAPP-A and PAPP-A2 are inhibited by STC1 and STC2, but not STC2(C120A)”; in data set [3], “Murine PAPP-A and PAPP-A2 are inhibited by STC1 and STC2, but not STC2(C120A)”. Further, the “proteolytic activity towards IGFBP-4 in conditioned media of STC2 transgenic mouse embryonic fibroblasts” value in data set [4] is on record as “conditioned media from MEFs derived from STC2 transgenic mice showed a marked reduction in PAPP-A activity”.
